Laboratory results published in patent publication US20140072558A1 (ANTIBODY AND RECEPTOR THERAPEUTICS, published 2014).

T1: FLAG-tagged water-soluble DLK1 (Homo sapiens (Human), UniProt P80370 25-302)
T1 construct: also called FLAG-DLK1; not shown: FLAG tag
T1 sequence: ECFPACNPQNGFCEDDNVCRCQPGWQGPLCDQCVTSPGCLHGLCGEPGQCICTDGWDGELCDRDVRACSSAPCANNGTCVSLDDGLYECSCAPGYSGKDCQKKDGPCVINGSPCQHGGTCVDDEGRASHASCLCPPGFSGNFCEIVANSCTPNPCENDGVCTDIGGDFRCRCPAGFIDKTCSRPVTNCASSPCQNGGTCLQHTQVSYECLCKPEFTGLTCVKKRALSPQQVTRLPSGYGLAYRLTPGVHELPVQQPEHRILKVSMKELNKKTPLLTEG

B1: DLK1B09 (scFv, V domains shown)
VH: QMQLVESGGRLVRPGGSLRLSCAASGFPFTSYAMNWVRQTPGKGLEWVSTITATSGKTYYADSVKGRFTISRDNSRNTLFLQMNSLRAEDTAVYYCVRGESCSGGACSDFDYWGQGALVTVSS
VL: QLVLTQPASVSGSPGQSVTISCTGTSSDIGRYNRVSWYQHHPGKAPKLILNDVTTRPSGFSNRFSGSKSGNTASLTISGLQAEDEADYSCGSYAGSYTYVFGTGTKVTVL
notes: Monoclonal scFv on phage; VH3-23, V1-4; also called B09 (phage clone)
B2: DLK1H12 (scFv, V domains shown)
VH: QVQLVQSGGGLVKPGGSLRLSCAASEFTFSDYYMSWVRQAPGKGLEWLSYISGSGITTYYADSVKGRFTISRDNGKKSLYLEMNSLRAEDTAVYYCARLQGHCSGGACSNWFDAWGQGTLITVSS
VL: DIQMTQSPSSLSASVGDRLTITCRASQSILTYLNWYQQKPGKAPKLLIYAASSLQRGVPSRFSGSGSGTDFTLTISGLQPEDFATYYCQQGYGTPYTFGQGTKVDIK
notes: Monoclonal scFv on phage; VH3-11, O12
B3: DLK1A04 (scFv, V domains shown)
VH: QVQLVESGAEVKKPGASVKVSCKASGYTFKDYAIHWVRQAPGQRLEWMGWINPGSGNTKYSHNFEGRVILTRDASANTAYLELPSLRSEDTAVYYCARSVSAYGSNYFDPWGQGTLITVSS
VL: DIQMTQSPSSLSASVGDRVTITCQASQDISNYLNWYQQKPGKAPKLLIYSTSNLQSGVPSRFSGSGSGTDFTLTISSLQPEDFATYYCQQLNSYPLTFGGGTKVDIK
notes: Monoclonal scFv on phage; VH1-3, L8
B4: DLK1A10 (scFv, V domains shown)
VH: QVQLVESGGGLVQPGRSLRLSCAASGFTFDDYAMHWVRQAPGKGLEWVSGISWNSGSIGYADSVKGRFTISRDNAKNSLYLQMNSLRAEDTAVYYCARGPGLATGKGYADYWGQGTLVTVSS
VL: DIQMTQSPSSVSASVGDRVTITCRASQRISSWLAWYQQKPGRAPKLLIHSASTLHNGVPSRFSGSASGTDFTLTISSLQPEDYAIYYCQQGHSFPYTFGQGTKLEIK
notes: Monoclonal scFv on phage; VH3-9
B5: DLK1A05 (scFv, V domains shown)
VH: QMQLVESGGGLVQPGRSLRLSCAASGFTFDEHAMHWVRQAPGKGLEWVSGINWNSGKTGYADSVKGRFTISRDNGKNSLYLQMNSLRAEDTAVYYCAKSGGYGGNTNWYFDLWGRGTLVTVSS
VL: QFVLTQPPSVSGAPGQNVTISCIGTSSNIGVGYDVHWYQQVPGTAPKLLVYGNNNRPSGVPDRFSGSKSGTSASLAITGLQAEDEADYYCQSYDSRLGVVFGGGTKLTVL
notes: Monoclonal scFv on phage; VH3-9, V1-13
B6: activin A (ligand, UniProt P08476 311-426, looked up)
chain: GLECDGKVNICCKKQFFVSFKDIGWNDWIIAPSGYHANYCEGECPSHIAGTSGSSLSFHSTVINHYRMRGHSPFANLKSCCVPTKLRPMSMLYYDDGQNIIKKDIQNMIVEECGCS
notes: also called ligand of ACVR2B
B7: ACVR2B-Fc (Fc fusion, UniProt Q13705 19-137, looked up)
chain: SGRGEAETRECIYYNANWELERTNQSGLERCEGEQDKRLHCYASWRNSSGTIELVKKGCWLDDFNCYDRQECVATEENPQVYFCCCEGNFCNERFTHLPEAGGPEVTYEPPPTAPTLLT
notes: extracellular domain; Prepared by attaching Fc to an extracellular part of ACVR2B; not shown: Fc
B8: ACVR1A-Fc (Fc fusion, UniProt Q04771 21-123, looked up)
chain: MEDEKPKVNPKLYMCVCEGLSCGNEDHCEGQQCFSSLSINDGFHVYQKGCFQVYEQGKMTCKTPPSPGQAVECCQGDWCNRNITAQLPTKGKSFPGTQNFHLE
notes: Control protein; not shown: Fc
B9: DLK1H06 (scFv, V domains shown)
VH: QVQLVQSGGGLIQPGGSLRLSCAASGFTFSLYGMSWVRQAPGKGLEWVSSIPGSGTRTHYADSVKGRFTISRDNSKNTLFLQMNSLRAEDTAVYYCAKSTAYLFDYWGPGTLVTVSS
VL: DIQMTQSPATLSLSPGERATLSCRASQSIRHYLAWYQQKPGQAPRLLIHGASSRATGIPDRFSGSGSGTDFTLTISRLEPEDFAVYYCQHYGSPLHSFGPGTKVEIK
notes: Monoclonal scFv on phage; VH3-23, A27
B10: DLK1-Fc fusion protein (Fc fusion)
chain: T1 sequence
notes: Water-soluble DLK1 joined to a human antibody Fc region; also called DLK1-Fc-FITC; not shown: human antibody Fc region

What was measured:
DLK1-Fc fusion protein [1] = biological target: B10; test: scFv-phage ELISA; OD on DLK1 divided by OD on a-myc
DLK1-Fc fusion protein [2] = biological target: B10; test: ELISA: activin A coated, DLK1-Fc added
BSA = BSA (UniProt P02769 25-607); test: ELISA: BSA coated as control for non-specific binding, ACVR2B-Fc serially diluted, anti-human IgG-HRP
Chain of BSA (P02769 25-607 limits assumed): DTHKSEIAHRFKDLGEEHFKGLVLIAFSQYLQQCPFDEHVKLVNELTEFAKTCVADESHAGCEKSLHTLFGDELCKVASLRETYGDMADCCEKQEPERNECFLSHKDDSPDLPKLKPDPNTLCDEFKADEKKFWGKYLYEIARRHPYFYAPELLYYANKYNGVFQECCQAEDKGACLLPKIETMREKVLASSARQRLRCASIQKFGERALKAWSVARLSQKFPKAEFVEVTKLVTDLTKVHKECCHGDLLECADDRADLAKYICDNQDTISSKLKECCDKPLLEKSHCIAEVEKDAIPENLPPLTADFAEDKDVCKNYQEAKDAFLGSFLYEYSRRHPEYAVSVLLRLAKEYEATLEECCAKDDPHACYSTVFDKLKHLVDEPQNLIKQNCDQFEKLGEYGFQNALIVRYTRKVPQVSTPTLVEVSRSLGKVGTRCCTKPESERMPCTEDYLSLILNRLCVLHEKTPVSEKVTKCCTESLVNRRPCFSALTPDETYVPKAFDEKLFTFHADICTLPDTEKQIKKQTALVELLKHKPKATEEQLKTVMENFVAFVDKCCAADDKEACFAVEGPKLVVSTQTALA
Protocol: (§1) Binding between ACVR2B and water-soluble DLK1 was confirmed by enzyme immunoassay (ELISA). To this end, 1 μg/ml of FLAG-tagged water-soluble DLK1 was coated on an immunoplate (Nunc) at 4° C. for 16 hours. Here, as a control for detecting non-specific binding, BSA was used. The coated plate was washed with PBST (0.05% Tween 20) three times, and blocked with 5% skim milk PBST. ACVR2B-Fc prepared by attaching Fc to an extracellular part of ACVR2B was subjected to serial dilution, and reacted at room temperature for 1 hour. After the reaction, the cells were washed with PBST (0.05% Tween 20) three times, and […] (1:5000) was incubated for 1 hour to measure a binding degree. After the reaction, the cells were washed with PBST (0.05% Tween 20) three times, a color reaction was performed using TMB (Sigma), and 2.5 M H₂SO₄ was added to stop the reaction. And then optical density was measured at 450 nm.

[3] = biological target: T1, FLAG-tagged water-soluble DLK1; test: ELISA
Protocol: as §1

activin A = biological target: B6; test: ELISA: activin A coated 50 ng/ml
Protocol: To examine whether water-soluble DLK1 competitively bind to the ACVR2B receptor with activin A, enzyme immunoassay was performed. 50 ng/ml of activin A was coated and reacted with ACVR2B-Fc and FLAG-DLK1, and then the binding was detected. Here, ACVR2B was fixed to a concentration of 2 nM, FLAG-DLK1 was treated to have a concentration of 1 to 16 nM, and then a degree of competitive binding was measured. As controls, Fc and ACVR1A-Fc not binding to activin A were used.

[4] = biological target: T2, activin receptor type II B (ACVR2B) expressed in cells (UniProt Q13705 19-512, limits assumed); test: flow cytometry, 1 ug DLK1-Fc-FITC on 293E cells
T2 construct: whole, on cells; also called ACVR2B-overexpressed cell line
Protocol: To confirm binding between water-soluble DLK1 and ACVR2B on actual cells, an experiment was performed using flow cytometry. The experiment was performed using CantoII (BD), and an experiment method was summarized as follows. […] The harvested cells were washed with cold DPBS twice, 1 μg of DLK1-Fc-FITC was added to react at 4° C. for 2 hours. DLK1-Fc-FITC used in the reaction was manufactured using a protein FITC labeling kit (Pierce). After the reaction, washing with 1% PBA (1% BSA in DPBS) buffer was performed, a degree of binding was determined by flow cytometry, and the results are shown in FIG. 15. In addition, the cells used above were subjected to western blotting to confirm the expression of ACVR2B (FIG. 14).

How did the Ratio (DLK1-Fc fusion protein [1]) turn out when B1 was run?
The Ratio was 25.3.

With B2 as the binder, how does the Ratio (DLK1-Fc fusion protein [1]) read?
Its Ratio is 4.75.

B3 was tested. Which Ratio (DLK1-Fc fusion protein [1]) did it give?
Its Ratio is 6.15.

B4 was tested. Which Ratio (DLK1-Fc fusion protein [1]) did it give?
Its Ratio is 2.21.

How did the Ratio (DLK1-Fc fusion protein [1]) turn out when B5 was run?
The Ratio was 3.81.

Does B6 bind (DLK1-Fc fusion protein [2])?
Result: no binding

Does B7 bind (BSA)?
Result: no binding

Does B7 bind [3]?
Result: binds

Does B8 bind (activin A)?
Result: no binding

For B9, which Ratio (DLK1-Fc fusion protein [1]) is on record?
Its Ratio is 2.47.

Does B10 bind [4]?
Result: binds
